Numbering of substitutions follows the chain as printed. Names may count otherwise.
B1: hAMH+SCUT+RSA (Wild type) AMH (ligand)
chain 1: HHHHHHPAVGTSGLIFREDLDWPPGSPQEPLCLVALGGDSNGSSSPLRVVGALSAYEQAFLGAVQRARWGPRDLATFGVCNTGDRQAALPSLRRLGAWLQDPGGQRLVVLHLEEVTWEPTPSLRFQEPPPGGAGPPELALLVLYPGPGPEVTVTRAGLPGAQSLCPSRDTRYLVLAVDRPAGAWRGSGLALTLQPRGEDSRLSTARLQALLFGDDHRCFTRMTPALLLLPRSEPAPLPAHGQLDTVPFPPPRPSAELEESPPSADPFLETLTRLVRALRVPPARASAPRLALDPDALAGFPQGLVNLSDPAALERLLDGEEPLLLLLRPTAATTGDPAPLHDPTSAPWATALARRVAAELQAAAAELRSLPGLPPATAPLLARLLALCPGGPGGLGDPLRALLLLKALQGLRVEWRGRDPRGPGISSRKKR
chain 2: SVSSSAGATAADGPCALRELSVDLRAERSVLIPETYQANNCQGVCGWPQSDRNPRYGNHVVLLLKMQARGAALARPPCCVPTAYAGKLLISLSEERISAHHVPNMVATECGCR
B2: hAMH mutant L536M (ligand)
chain 1: B1 chain 1
chain 2: B1 chain 2 with L89M
B3: hAMH mutant A546M (ligand)
chain 1: B1 chain 1
chain 2: B1 chain 2 with A99M
B4: hAMH mutant S538A (ligand)
chain 1: B1 chain 1
chain 2: B1 chain 2 with S91A
B5: hAMH mutant L536I (ligand)
chain 1: B1 chain 1
chain 2: B1 chain 2 with L89I
B6: hAMH+SCUT+RSA L535M mutant (ligand)
chain 1: B1 chain 1
chain 2: B1 chain 2 with L88M
B7: hAMH+SCUT+RSA G533A mutant (ligand)
chain 1: B1 chain 1
chain 2: B1 chain 2 with G86A
B8: hAMH+SCUT+RSA G533H mutant (ligand)
chain 1: B1 chain 1
chain 2: B1 chain 2 with G86H
B9: hAMH+SCUT+RSA G533S mutant (ligand)
chain 1: B1 chain 1
chain 2: B1 chain 2 with G86S
B10: hAMH+SCUT+RSA G533K mutant (ligand)
chain 1: B1 chain 1
chain 2: B1 chain 2 with G86K
B11: hAMH+SCUT+RSA double mutant G533A+L535M (ligand)
chain 1: B1 chain 1
chain 2: B1 chain 2 with G86A, L88M
B12: hAMH+SCUT+RSA H548K mutant (ligand)
chain 1: B1 chain 1
chain 2: B1 chain 2 with H101K

molecular target: T1, AMH-specific type II receptor, AMHR2 (UniProt Q16671 18-573, limits assumed); experiment: cell-based or functional assay
T1 sequence (looked up): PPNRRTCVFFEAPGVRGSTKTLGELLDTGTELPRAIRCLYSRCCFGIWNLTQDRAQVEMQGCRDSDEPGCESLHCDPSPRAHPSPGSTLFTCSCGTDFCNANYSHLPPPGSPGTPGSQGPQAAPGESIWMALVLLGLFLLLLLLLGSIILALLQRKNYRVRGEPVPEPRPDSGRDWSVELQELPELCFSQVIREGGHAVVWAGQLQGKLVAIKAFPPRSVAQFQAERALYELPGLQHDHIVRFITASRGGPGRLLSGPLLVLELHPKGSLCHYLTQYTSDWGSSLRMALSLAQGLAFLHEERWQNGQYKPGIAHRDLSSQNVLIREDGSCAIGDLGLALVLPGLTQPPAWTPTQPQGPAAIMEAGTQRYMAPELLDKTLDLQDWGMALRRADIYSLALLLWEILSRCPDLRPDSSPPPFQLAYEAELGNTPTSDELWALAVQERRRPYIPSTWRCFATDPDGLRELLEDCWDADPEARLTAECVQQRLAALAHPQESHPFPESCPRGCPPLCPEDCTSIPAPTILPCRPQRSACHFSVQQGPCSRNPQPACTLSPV

| Binder | AMH activity relative to wild type (%) | EC50 in COV434 BRE-Luc assay [ng/mL] | Maximal response relative to wild-type (%) | Potency relative to ‘wild-type’ |
| --- | --- | --- | --- | --- |
| B1 | 100 | ~6 | – | – |
| B2 | – | – | ~80 | ~3 fold less potent |
| B3 | – | – | ~5 | – |
| B4 | – | – | ~65 | ~4 fold less potent |
| B5 | – | – | ~65 | ~7 fold less potent |
| B6 | 100 | ~6 | – | – |
| B7 | 250 | ~2.8 | – | ~2 fold more potent |
| B8 | 100 | ~6 | – | – |
| B9 | 350 | ~1.8 | ~140 | ~3 fold more potent |
| B10 | 500 | ~1.2 | ~190 | ~5 fold more potent |
| B11 | 100 | ~6 | – | – |
| B12 | 100 | ~6 | – | – |
